In this test the test system is MDA-MB-231 cells. In words: MDA-MB-231 cell migration (matrixgel / transwell). It is filed as cell-based. Conditions: 10 nM E2 or 10 ng/ml EGF alone, 20 hours.

The source of these data is patent US11911397B2, “Anordrin compositions and methods for treating diseases” (Zhejiang Jiachi Development Pharmaceuticals LTD, priority 2014, dated 2024).

Protocol: As anordrin has been reported as an anti-angiogenic agent resulting in inhibition of cell migration and invasion (16), we studied its ability to modulate MDA-MB-231 cell migration using matrixgel. […] After 20 hours migrated cells were stained and quantified using a plate reader at 560 nm.
Transwell and flow cytometry assay: Cells were starved for 48 hours in phenol red free medium containing 5% charcoal-stripped FBS, and then changed into phenol red free medium for an additional 24 hours. Transwell was performed following the Chemicon kit instructions (CAT #ECM551). Briefly, cells were trypsinized, washed using 1×DPBS containing Ca2+ and Mg2+ (Sigma) and resuspensed in serum and phenol red free medium at a cell density of 0.5×10^6 cells/ml.

B1: EGF: EGF, binds to Her1; used at 10 ng/ml as stimulus (protein, UniProt P01133 23-1207, looked up)
Pro-epidermal growth factor: PQHWSCPEGTLAGNGNSTCVGPAPFLIFSHGNSIFRIDTEGTNYEQLVVDAGVSVIMDFHYNEKRIYWVDLERQLLQRVFLNGSRQERVCNIEKNVSGMAINWINEEVIWSNQQEGIITVTDMKGNNSHILLSALKYPANVAVDPVERFIFWSSEVAGSLYRADLDGVGVKALLETSEKITAVSLDVLDKRLFWIQYNREGSNSLICSCDYDGGSVHISKHPTQHNLFAMSLFGDRIFYSTWKMKTIWIANKHTGKDMVRINLHSSFVPLGELKVVHPLAQPKAEDDTWEPEQKLCKLRKGNCSSTVCGQDLQSHLCMCAEGYALSRDRKYCEDVNECAFWNHGCTLGCKNTPGSYYCTCPVGFVLLPDGKRCHQLVSCPRNVSECSHDCVLTSEGPLCFCPEGSVLERDGKTCSGCSSPDNGGCSQLCVPLSPVSWECDCFPGYDLQLDEKSCAASGPQPFLLFANSQDIRHMHFDGTDYGTLLSQQMGMVYALDHDPVENKIYFAHTALKWIERANMDGSQRERLIEEGVDVPEGLAVDWIGRRFYWTDRGKSLIGRSDLNGKRSKIITKENISQPRGIAVHPMAKRLFWTDTGINPRIESSSLQGLGRLVIASSDLIWPSGITIDFLTDKLYWCDAKQSVIEMANLDGSKRRRLTQNDVGHPFAVAVFEDYVWFSDWAMPSVMRVNKRTGKDRVRLQGSMLKPSSLVVVHPLAKPGADPCLYQNGGCEHICKKRLGTAWCSCREGFMKASDGKTCLALDGHQLLAGGEVDLKNQVTPLDILSKTRVSEDNITESQHMLVAEIMVSDQDDCAPVGCSMYARCISEGEDATCQCLKGFAGDGKLCSDIDECEMGVPVCPPASSKCINTEGGYVCRCSEGYQGDGIHCLDIDECQLGEHSCGENASCTNTEGGYTCMCAGRLSEPGLICPDSTPPPHLREDDHHYSVRNSDSECPLSHDGYCLHDGVCMYIEALDKYACNCVVGYIGERCQYRDLKWWELRHAGHGQQQKVIVVAVCVVVLVMLLLLSLWGAHYYRTQKLLSKNPKNPYEESSRDVRSRRPADTEDGMSSCPQPWFVVIKEHQDLKNGGQPVAGEDGQAADGSMQPTSWRQEPQLCGMGTEQGCWIPVSSDKGSCPQVMERSFHMPSYGTQTLEGGVEKPHSLLSANPLWQQRALDPPHQMELTQ
modifications: Pro-epidermal growth factor
notes: used at 10 ng/ml as stimulus
Turning to B1, the MDA-MB-231 cell migration entry is on record as “slightly enhanced”.
